This is an account of results in the RNAGym collection of RNA variant scans (doi:10.1073/pnas.2313332121).

B1: TPR t1 (parent)
chain: GACCAAUCUGCCCUCAGAGCUCGAGAACAUCUUCGGAUGCAGAGGAGGCAGGCUUCGGUGGCGCGAUAGCGCCAACGUCCUCAACCUCCAAUGCAUCCCACCACAUGAUGAUGCCUGAAGAGCCUUGGUUUUUUG

Variants of B1 are the subject of this data set. Briefly: polymerase ribozyme fitness, log enrichment relative to wild type (log ratio); higher = more active; in vitro selection for triplet polymerase activity. A digest of the protocol: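 One round of in vitro selection, in triplicate, was applied to PCR-built, transcribed mutant libraries of each subunit of a heterodimeric triplet polymerase ribozyme. The steps were annealing with a biotinylated primer, partner subunit and triplets, incubation frozen at −7 °C, gel excision of extended constructs, streptavidin-bead capture and RT-PCR. Fitness is the logarithm, base 2, of genotype enrichment over wild-type enrichment from inverse-variance-weighted replicate averages of Illumina-sequenced inputs and outputs, keeping genotypes with ≥10 input reads and ≥1 read per output.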
In the case of GACCAAUCUGCCCUCAGAGCUCGAGAACAUCUUCGGAUGCAGAGGAGGCAGGCUUCGGUGGCGCGAUAGCGCCAACGUCCUCAACCUCCAAUGCAUCCCACCACAUGAUGAUGCCUGAAGAGCUUUGGUUUUGUG, the “polymerase ribozyme fitness (log ratio)” value was found to be 0.97.

Turning to GACCAAUCUGCCCUCAGAGCUCGAGAACAUCUUCGGAUGCAGAGGAGGCAGGCUUCGGUGGCGCGAUAGCGCCAACGUCCUCAACCUCCAAUGCAUCCCACCACAUGAUGAUGCCUGAAGAGCGUUGGUUUAUUG, the “polymerase ribozyme fitness (log ratio)” value came to 2.04.

Regarding GACCAAUCUGCCCUCAGAGCUCGAGAACAUCUUCGGAUGCAGAGGAGGCAGGCUUCGGUGGCGCGAUAGCGCCAACGUCCUCAACCUCCAAUGCAUCCCACCACAUGAUGAUGCCUGAAGAGCCAUGGUUGUUUG, the “polymerase ribozyme fitness (log ratio)” value worked out at 0.203.

As for GACCAAUCUGCCCUCAGAGCUCGAGAACAUCUUCGGAUGCAGAGGAGGCAGGCUUCGGUGGCGCGAUAGCGCCAACGUCCUCAACCUCCAAUGCAUCCCACCACAUGAUGAUGCCUGAAGAGCCAUGGUUCUUUG, the “polymerase ribozyme fitness (log ratio)” value was -0.281.

For GACCAAUCUGCCCUCAGAGCUCGAGAACAUCUUCGGAUGCAGAGGAGGCAGGCUUCGGUGGCGCGAUAGCGCCAACGUCCUCAACCUCCAAUGCAUCCCACCACAUGAUGAUGCCUGAAGAGCCUUCGUCUUUUG, the “polymerase ribozyme fitness (log ratio)” value came out at 0.0399.

In the case of GACCAAUCUGCCCUCAGAGCUCGAGAACAUCUUCGGAUGCAGAGGAGGCAGGCUUCGGUGGCGCGAUAGCGCCAACGUCCUCAACCUCCAAUGCAUCCCACCACAUGAUGAUGCCUGAAGAGCCGUGGUUUUUUG, the “polymerase ribozyme fitness (log ratio)” value is -1.01.

Regarding GACCAAUCUGCCCUCAGAGCUCGAGAACAUCUUCGGAUGCAGAGGAGGCAGGCUUCGGUGGCGCGAUAGCGCCAACGUCCUCAACCUCCAAUGCAUCCCACCACAUGAUGAUGCCUGAAGAGCCAUGGUUUUUUG, the “polymerase ribozyme fitness (log ratio)” value is -0.431.

Turning to GACCAAUCUGCCCUCAGAGCUCGAGAACAUCUUCGGAUGCAGAGGAGGCAGGCUUCGGUGGCGCGAUAGCGCCAACGUCCUCAACCUCCAAUGCAUCCCACCACAUGAUGAUGCCUGAAGAGCCCUGGUUUUUUG, the “polymerase ribozyme fitness (log ratio)” value was -1.8.

For the variant GACCAAUCUGCCCUCAGAGCUCGAGAACAUCUUCGGAUGCAGAGGAGGCAGGCUUCGGUGGCGCGAUAGCGCCAACGUCCUCAACCUCCAAUGCAUCCCACCACAUGAUGAUGCCUGAAGAGCCUUCAUUUUUUG, the “polymerase ribozyme fitness (log ratio)” value is -1.79.

In the case of GACCAAUCUGCCCUCAGAGCUCGAGAACAUCUUCGGAUGCAGAGGAGGCAGGCUUCGGUGGCGCGAUAGCGCCAACGUCCUCAACCUCCAAUGCAUCCCACCACAUGAUGAUGCCUGAAGAGCUUUGGAUUUUUG, the “polymerase ribozyme fitness (log ratio)” value is -0.35.

Take GACCAAUCUGCCCUCAGAGCUCGAGAACAUCUUCGGAUGCAGAGGAGGCAGGCUUCGGUGGCGCGAUAGCGCCAACGUCCUCAACCUCCAAUGCAUCCCACCACAUGAUGAUGCCUGAAGAGCCAUCGUUUUUUG: the “polymerase ribozyme fitness (log ratio)” value is -1.91.

Regarding GACCAAUCUGCCCUCAGAGCUCGAGAACAUCUUCGGAUGCAGAGGAGGCAGGCUUCGGUGGCGCGAUAGCGCCAACGUCCUCAACCUCCAAUGCAUCCCACCACAUGAUGAUGCCUGAAGAGCUUUGGUUUUUUU, the “polymerase ribozyme fitness (log ratio)” value is -0.0615.

Turning to GACCAAUCUGCCCUCAGAGCUCGAGAACAUCUUCGGAUGCAGAGGAGGCAGGCUUCGGUGGCGCGAUAGCGCCAACGUCCUCAACCUCCAAUGCAUCCCACCACAUGAUGAUGCCUGAAGAGCCUAGCUUUUUUG, the “polymerase ribozyme fitness (log ratio)” value is -2.86.

Turning to GACCAAUCUGCCCUCAGAGCUCGAGAACAUCUUCGGAUGCAGAGGAGGCAGGCUUCGGUGGCGCGAUAGCGCCAACGUCCUCAACCUCCAAUGCAUCCCACCACAUGAUGAUGCCUGAAGAGCCUGGGUGUUUUG, the “polymerase ribozyme fitness (log ratio)” value was -3.64.

Turning to GACCAAUCUGCCCUCAGAGCUCGAGAACAUCUUCGGAUGCAGAGGAGGCAGGCUUCGGUGGCGCGAUAGCGCCAACGUCCUCAACCUCCAAUGCAUCCCACCACAUGAUGAUGCCUGAAGAGCCAGGGUUUUUUG, the “polymerase ribozyme fitness (log ratio)” value was -1.8.

Regarding GACCAAUCUGCCCUCAGAGCUCGAGAACAUCUUCGGAUGCAGAGGAGGCAGGCUUCGGUGGCGCGAUAGCGCCAACGUCCUCAACCUCCAAUGCAUCCCACCACAUGAUGAUGCCUGAAGAGCCUGGGAUUUUUG, the “polymerase ribozyme fitness (log ratio)” value is -2.97.

Regarding GACCAAUCUGCCCUCAGAGCUCGAGAACAUCUUCGGAUGCAGAGGAGGCAGGCUUCGGUGGCGCGAUAGCGCCAACGUCCUCAACCUCCAAUGCAUCCCACCACAUGAUGAUGCCUGAAGAGCCUGAGUUUUUUG, the “polymerase ribozyme fitness (log ratio)” value is -2.54.

For GACCAAUCUGCCCUCAGAGCUCGAGAACAUCUUCGGAUGCAGAGGAGGCAGGCUUCGGUGGCGCGAUAGCGCCAACGUCCUCAACCUCCAAUGCAUCCCACCACAUGAUGAUGCCUGAAGAGCCUUCGUUUUUUG, the “polymerase ribozyme fitness (log ratio)” value is -1.03.

Regarding GACCAAUCUGCCCUCAGAGCUCGAGAACAUCUUCGGAUGCAGAGGAGGCAGGCUUCGGUGGCGCGAUAGCGCCAACGUCCUCAACCUCCAAUGCAUCCCACCACAUGAUGAUGCCUGAAGAGCCUUAGUUUUUUG, the “polymerase ribozyme fitness (log ratio)” value is -1.25.

Regarding GACCAAUCUGCCCUCAGAGCUCGAGAACAUCUUCGGAUGCAGAGGAGGCAGGCUUCGGUGGCGCGAUAGCGCCAACGUCCUCAACCUCCAAUGCAUCCCACCACAUGAUGAUGCCUGAAGAGCCUUUGUUUUUUG, the “polymerase ribozyme fitness (log ratio)” value is -0.639.

For the variant GACCAAUCUGCCCUCAGAGCUCGAGAACAUCUUCGGAUGCAGAGGAGGCAGGCUUCGGUGGCGCGAUAGCGCCAACGUCCUCAACCUCCAAUGCAUCCCACCACAUGAUGAUGCCUGAAGAGCUUUGGUUUUUUG, the “polymerase ribozyme fitness (log ratio)” value worked out at 1.54.
